From article PMC3494861 (The Journal of Cell Biology, 2012)

Key:
[1] = target: His9-Tob55, short isoform (N. crassa strain Tob55 short HT) (N. crassa); assay: cryo-EM structure
[2] = target: Tob55 (endogenous; long, intermediate and short isoforms) (N. crassa); assay: cross-linking
[3] = target: His9-Tob37 (Tob37 with a 9x His tag, N. crassa strain Tob37HT) (N. crassa) (UniProt Q7SFC4); assay: isotope dilution mass spectrometry
[4] = target: His9-Tob38 (Tob38 with a 9x His tag, N. crassa strain Tob38HT) (N. crassa) (UniProt V5IPB4); assay: isotope dilution mass spectrometry
[5] = target: His9-Tob55, short isoform (N. crassa strain Tob55 short HT) (N. crassa); assay: isotope dilution mass spectrometry
[6] = target: T1, His9-Tob37 (Tob37 with a 9x His tag, N. crassa strain Tob37HT) (N. crassa, UniProt Q7SFC4 1-442); assay: isotope dilution mass spectrometry
T1 sequence (looked up): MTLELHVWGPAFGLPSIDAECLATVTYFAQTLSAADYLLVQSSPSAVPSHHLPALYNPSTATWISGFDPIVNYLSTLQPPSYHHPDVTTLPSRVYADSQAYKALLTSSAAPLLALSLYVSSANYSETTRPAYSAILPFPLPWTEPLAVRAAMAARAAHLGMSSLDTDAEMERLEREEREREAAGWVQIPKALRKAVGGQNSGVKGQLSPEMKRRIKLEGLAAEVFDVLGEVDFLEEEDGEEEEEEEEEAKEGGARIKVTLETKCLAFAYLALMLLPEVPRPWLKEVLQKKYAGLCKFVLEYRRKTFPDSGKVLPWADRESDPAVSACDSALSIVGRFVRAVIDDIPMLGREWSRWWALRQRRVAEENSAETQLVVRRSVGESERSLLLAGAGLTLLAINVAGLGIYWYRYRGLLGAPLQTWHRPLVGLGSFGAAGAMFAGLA

[7] = target: T2, His9-Tob38 (Tob38 with a 9x His tag, N. crassa strain Tob38HT) (N. crassa, UniProt V5IPB4 1-340); assay: isotope dilution mass spectrometry
T2 sequence (looked up): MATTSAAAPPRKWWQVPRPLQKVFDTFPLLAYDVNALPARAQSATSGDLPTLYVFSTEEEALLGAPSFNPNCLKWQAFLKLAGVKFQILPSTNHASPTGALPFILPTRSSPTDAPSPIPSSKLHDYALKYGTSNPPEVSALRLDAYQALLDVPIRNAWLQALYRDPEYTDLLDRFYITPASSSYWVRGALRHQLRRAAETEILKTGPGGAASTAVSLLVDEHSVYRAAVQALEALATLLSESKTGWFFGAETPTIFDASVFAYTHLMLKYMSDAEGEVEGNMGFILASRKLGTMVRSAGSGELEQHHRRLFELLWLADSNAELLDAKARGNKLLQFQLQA

[8] = target: T2, His9-Tob38 (Tob38 with a 9x His tag, N. …); assay: native gel or EMSA
[9] = target: T1, His9-Tob37 (Tob37 with a 9x His tag, N. …); assay: native gel or EMSA

A stoichiometry N [1] of 2 was found for “His9-Tob55, short isoform (N. crassa strain Tob55 short HT) (natural protein)” in this work.

A stoichiometry N [2] of 2, a stoichiometry N [3] of 1 and a stoichiometry N [4] of 1 were found for “Tob55 (endogenous; long, intermediate and short isoforms) (natural protein)” in this work.

B1: Tob38 (endogenous) (natural protein, N. crassa, UniProt V5IPB4 1-340, looked up)
chain: MATTSAAAPPRKWWQVPRPLQKVFDTFPLLAYDVNALPARAQSATSGDLPTLYVFSTEEEALLGAPSFNPNCLKWQAFLKLAGVKFQILPSTNHASPTGALPFILPTRSSPTDAPSPIPSSKLHDYALKYGTSNPPEVSALRLDAYQALLDVPIRNAWLQALYRDPEYTDLLDRFYITPASSSYWVRGALRHQLRRAAETEILKTGPGGAASTAVSLLVDEHSVYRAAVQALEALATLLSESKTGWFFGAETPTIFDASVFAYTHLMLKYMSDAEGEVEGNMGFILASRKLGTMVRSAGSGELEQHHRRLFELLWLADSNAELLDAKARGNKLLQFQLQA
In the case of B1, the stoichiometry N [5] is reported as 1 and the “stoichiometry N” value [6] is reported as 1.

B2: Tob37 (endogenous) (natural protein, N. crassa, UniProt Q7SFC4 1-442, looked up)
chain: MTLELHVWGPAFGLPSIDAECLATVTYFAQTLSAADYLLVQSSPSAVPSHHLPALYNPSTATWISGFDPIVNYLSTLQPPSYHHPDVTTLPSRVYADSQAYKALLTSSAAPLLALSLYVSSANYSETTRPAYSAILPFPLPWTEPLAVRAAMAARAAHLGMSSLDTDAEMERLEREEREREAAGWVQIPKALRKAVGGQNSGVKGQLSPEMKRRIKLEGLAAEVFDVLGEVDFLEEEDGEEEEEEEEEAKEGGARIKVTLETKCLAFAYLALMLLPEVPRPWLKEVLQKKYAGLCKFVLEYRRKTFPDSGKVLPWADRESDPAVSACDSALSIVGRFVRAVIDDIPMLGREWSRWWALRQRRVAEENSAETQLVVRRSVGESERSLLLAGAGLTLLAINVAGLGIYWYRYRGLLGAPLQTWHRPLVGLGSFGAAGAMFAGLA
With B2 the stoichiometry N [5] was 1 and the “stoichiometry N” value [7] was 1.

B3: Mdm10 (endogenous) (natural protein, N. crassa, UniProt Q7SBE0 1-480, looked up)
chain: MREFMNYITNAFYGATGWNEDNKYNELNATSRELIDFPLPRGLRLTLSSLATPHFATSYQLGSVGVVDGSISYLHSSIPLTHIAAQSDKIPLPALLRCYRRLHDLRSPGQQHYILDADPLSGLPPPPQSARALLGAASDAAVAGGALDGGNTDQDLGIYTHSLLYGRLYLPKSLLEGMIIKRFTQALQVQVRAVSEQSLRNGGTILGLVQYDKGKYGLEGLYSTDGGLLGFRGLYNFGGDASSSTCDPWTPTPGENNNNNNNNNNNNNGNAQAGEKERIYGRFSVGGELYYGTLNKSGGMSLGARFATLPAHRGTPLTATLTINPLMGNINATYALLAREYCSLATRVDFNVYSYESEWAVGMELWSNRRPAGFLLGASPSNDFEPEPHPPRKKERSFQAKMEWRLDDPEPEPEPQPTPKTRKNDEYKGVLKARLDNNLRMGLLWEGRAKSLIFSIGTGIDLHKLGEPFRSLGLEVQYSS
B3 was tested, and the “stoichiometry N” value [8] was 1 and the “stoichiometry N” value [9] was 1.
